Laboratory results published in the supplement of paper PMC10567573.

B1: HDAC6 (parent)
chain: ACAQLATGAACRLVEAVLSGEVLN
B2: SASS6 (parent)
chain: QKELQDVGQSLRIKEQEVCKLQEQ
B3: SMG5 (parent)
chain: TRKLSPGKKRCKDIKRLLVNFMYL

Variants of: B1
Assay: protein stability index of a GFP-peptide fusion (GPS, HEK-293T) (PSI 1-6); higher = more stable
Details: c terminus: a fixed tail appended
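Note: lentivirally expressed fusions sorted by FACS into six bins by GFP to DsRed ratio, PSI derived from sequencing read proportions per bin multiplied by bin number.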

Protein stability index, by site and new letter:
C2: S 1.08 | E 2 | K 1.99 | P 1.82 | L 3.12 | N 1.21 | Q 2.97 | T 3.63 | D 2.98
V14: C 3.54 | D 2.53 | M 3.28 | T 1.75 | A 2.05 | N 3.78 | H 2.56 | S 2.15 | Q 2.74 | G 2.17 | K 1.97
A9: N 1.09 | I 3.52 | G 1.69 | K 2.23 | D 2.61 | W 2.99 | Y 1.68 | E 3.49 | P 2.4 | R 3
A1: G 1 | E 3.75 | P 1.53 | C 1.16 | T 4.34 | S 3.19 | K 1.92
N24: F 1.85 | K 2.61 | D 1.87
S19: A 4.12 | P 2.98
G20: S 2.89 | P 2.07 | D 2.25 | F 3.97 | I 2.15 | E 1.43 | L 3.07 | R 2.86
R12: P 2.66 | T 2.92 | M 3.3 | G 1.26 | Y 3.46 | A 2.3 | N 2.52 | Q 1.97 | S 1.65 | D 1.48
C11: K 2.29 | P 2.27 | A 2.9 | R 1.78 | E 1.04
E15: P 1.05 | N 2.52 | H 4.01
L5: T 1.37 | N 1.81 | Q 2.67 | D 2.61 | V 1.16 | H 1.42 | P 2.2 | G 2.42 | I 1.51 | M 2.68 | E 2.48
A3: F 3.94 | S 4.04 | W 2.17 | D 2.88 | N 1.68
L13: S 1.68 | P 2.53 | K 3.91 | D 3.58 | R 2.5 | H 3.21 | M 2.93 | T 1.93 | N 2.06
G8: C 2.74 | D 2.67 | T 3.69 | S 1.94 | M 1.28
T7: S 2.78 | D 1.79 | M 3.57 | N 1.54
V17: S 1.93 | P 2.5 | Q 1.85 | T 2.04 | D 3.56 | H 2.75
V22: G 2.44 | L 2.09 | S 1.36 | F 2.71 | Y 3.8 | P 2.42 | D 2.37 | M 3.31 | A 3.65 | H 4.01 | K 1.01 | E 1.84
L18: T 2.02 | S 2.04 | D 3.68 | A 1.69 | H 2.47 | K 2.1 | Y 3.82 | P 3.73 | M 3.05 | R 2.29 | Q 2.2 | C 1.45
A16: P 2.28 | Y 3.51 | L 2.77 | D 2.78 | R 2.18
A10: I 2.01 | G 1.43 | E 1.82 | D 2.22 | Y 1.49 | C 2.16 | P 2 | R 1.7 | Q 1.71 | K 2.38
A6: C 2.49 | N 1.48 | G 2.25 | H 1 | D 2.11 | K 1.19 | E 2.35 | I 3.57 | T 1.39 | Q 2.74
Q4: A 2.68 | I 1.55 | P 1.04 | K 2.69 | Y 4.38 | E 2.92
E21: W 2.67 | N 3.96 | C 2.87 | I 3.07 | D 2.6 | Y 3.01 | K 1.09
L23: P 1.96 | N 1.54 | H 3.51 | Y 3.97 | A 2.22 | E 2.83 | Q 1.05 | W 2.42 | D 2.49 | V 1.26 | M 4.41 | K 1.7

Variants of: B2
Assay: as above
Details: c terminus: a fixed tail appended

Protein stability index, by site and new letter:
V7: W 4.64 | N 4.92 | D 5.71 | Y 5.18 | A 5.19 | I 5.05 | R 5.39 | H 4.72 | Q 5.82 | L 5.14 | M 3.42 | P 4.8 | K 5.16 | E 5.11 | S 5.76 | G 5.41 | C 3.36 | T 5.68 | F 4.73
Q9: L 4.84 | H 5.05 | K 5.3 | G 5.02 | T 5.23 | F 4.13 | E 4.49 | C 4.76 | M 4.67 | A 5.52 | I 4.97 | S 4.47 | P 5.56 | R 5.1 | D 5.71 | N 5.67 | Y 4.87
K2: H 5.46 | P 4.2 | M 5.1 | E 5.48 | A 4.58 | Y 4.98 | L 4.97 | C 5.29 | D 5.26 | I 4.88 | T 5.34 | G 4.65 | F 4.02 | S 5.43
Q1: F 4.25 | T 4.55 | C 4.99 | S 4.63 | P 4.91 | L 4.46 | H 5.51 | M 4.5 | N 5.75 | E 5.94 | Y 4.78 | V 4.88 | K 5.22
D6: M 5.02 | H 4.62 | T 4.74 | G 5 | Q 5.31 | V 4.46 | Y 4.58 | A 5.17 | E 5.05 | F 3.81 | P 5.26 | S 4.91 | N 4.9 | L 4.14 | K 5.23
G8: N 5.12 | T 5.13 | K 5.2 | V 4.69 | W 3.84 | D 5.26 | Y 4.18 | R 5.48 | M 4.98 | L 3.83 | S 5 | P 4.75 | A 3.61 | F 4.07 | I 4 | H 5 | E 5.38 | C 4.92
E3: H 4.39 | Y 4.4 | Q 4.68 | T 5.08 | V 4.52 | K 4.63 | W 3.84 | R 5.25 | L 4.92 | I 4.37 | A 4.92 | P 3.71 | C 4.83 | M 4.02 | S 5.1 | F 3.29 | N 4.88 | D 5.34 | G 4.68
Q5: D 5.37 | L 2.94 | M 5.16 | G 5.69 | Y 4.32 | C 5.7 | S 5.16 | W 4.79 | V 5.13 | N 5.3 | K 5.7 | I 5.02 | T 5.41 | R 4.41 | F 4.27 | H 4.91
S10: C 4.12 | A 5
L4: K 4.87 | R 4.96 | F 5.11 | M 3.98 | C 4.06 | S 5.41 | Y 4.98 | W 4.82 | I 5.34 | T 5.23 | V 5.28 | Q 4.24 | P 5.34 | N 5.1 | A 5.25 | G 5.59 | D 5.57 | H 5.68

Variants of: B3
Assay: as above
Details: c terminus: a fixed tail appended

Protein stability index, by site and new letter:
L24: Y 2.08
